Reference: US20180258158A1 (Bristol-Myers Squibb, published 2018)
Where two headings read alike, the source gives them in different places.

What was measured:
[1] = target: T1, human serum albumin (HSA), full length (human, UniProt P02768 25-609); assay: SPR off-rate, immobilized HSA, 500 nM Adnectin, 25 C
T1 construct: mature; Immobilized on CM5 chip (SPR) or coated on plates (ELISA)
Experimental: (§1) Measurements were conducted by SPR and ELISA. SPR was conducted as follows. Full length HSA or mouse albumin was immobilized on a Biacore T series CM5 chip at 15 ug/mL in 10 mM acetate buffer (pH 5.0) buffer using standard NHS/EDC coupling, to a surface density of approximately 1000-1100 RU. For off-rate measurements at 25° C., PKE Adnectins were applied as analytes at 500 nM in HBS-P+(0.01 M HEPES pH 7.4, 0.15 M NaCl, 0.005% v/v Surfactant P20) running buffer at a flow rate of 20ul/min for 120 s over the immobilized albumins, followed by 800 s for dissociation. […] Regeneration of the chip surface between cycles was accomplished with two 30 second pulses of 10 mM Glycine, pH 2.0. Kinetic traces of reference-subtracted sensorgrams were fit to a 1:1 binding model for affinity using the Biaevaluation software. Only the dissociation phase was fit for determination of off-rates.

[2] = target: T2, mouse serum albumin (MSA), full length (mouse, UniProt P07724 25-608); assay: direct binding ELISA, coated MSA, anti-His-HRP
T2 construct: mature; Immobilized on CM5 chip (SPR) or coated on plates (ELISA); also called mouse albumin; murine serum albumin
Experimental: (§2) Direct binding ELISA assays were conducted as follows. Full length human and murine serum albumin at 10ug/ml in PBS were coated on Nunc Maxisorp plates overnight at 4° C. Plates were blocked in casein/PBS buffer. PKE Adnectins were allowed to bind over a 4-point concentration range of 0.032-4 uM for HSA and 0.008-1 uM for MSA. Bound Adnectin was detected by anti-His antibody conjugated with HRP (horseradish peroxidase) diluted 1:1500 in casein/PBS. Plates were developed with TMB substrate and absorbance read at 450 nm. Adnectins were binned as high, medium and low affinity binders based on the observed Ymax of the concentration response curves.

[3] = target: T1, human serum albumin (HSA), full length; assay: direct binding ELISA, coated HSA, anti-His-HRP; set-up: unit not given here
Experimental: as §2

[4] = target: T2, mouse serum albumin (MSA), full length; assay: SPR off-rate ratio to parent ADX_7016_A01, MSA, 25 C
Experimental: as §1

[5] = target: T2, mouse serum albumin (MSA), full length; assay: direct binding ELISA, coated MSA, anti-His-HRP; set-up: unit not given here
Experimental: as §2

[6] = target: T1, human serum albumin (HSA), full length; assay: SPR off-rate, immobilized HSA, 500 nM Adnectin, 25 C; remark: listed apart in the source
Experimental: as §1

[7] = target: T1, human serum albumin (HSA), full length; assay: SPR off-rate ratio to parent ADX_7016_A01, HSA, 25 C
Experimental: as §1

[8] = target: T2, mouse serum albumin (MSA), full length; assay: SPR off-rate, immobilized MSA, 500 nM Adnectin, 25 C
Experimental: as §1

[9] = target: T2, mouse serum albumin (MSA), full length; assay: as above; remark: listed apart in the source
Experimental: as §1

[10] = target: T2, mouse serum albumin (MSA), full length; assay: SPR off-rate ratio to parent ADX_7016_A01, MSA, 25 C; remark: listed apart in the source
Experimental: as §1

[11] = target: T2, mouse serum albumin (MSA), full length; assay: SPR, immobilized MSA, 500 nM Adnectin, 25 C
Experimental: as §1

[12] = target: T1, human serum albumin (HSA), full length; assay: SPR off-rate ratio to parent ADX_7016_A01, HSA, 25 C; remark: listed apart in the source
Experimental: as §1

[13] = target: T1, human serum albumin (HSA), full length; assay: SPR, immobilized HSA, 500 nM Adnectin, 25 C
Experimental: as §1

[14] = target: T3, rat serum albumin (rat SA), full length (rat, UniProt P02770 25-608); assay: SPR kinetics, immobilized albumin, 1:1 fit, 37 C
T3 construct: mature; Immobilized on CM5 chip (SPR); also called RSA
Experimental: as §1, with “The SPR” for “Measurements were conducted by SPR and ELISA. SPR”, “length human, mouse, rat and cynomolgus monkey serum” for “length HSA or mouse”, “albumin were” for “albumin was”

[15] = target: T2, mouse serum albumin (MSA), full length; assay: SPR kinetics, immobilized albumin, 1:1 fit, 37 C
Experimental: as §1, with “The SPR” for “Measurements were conducted by SPR and ELISA. SPR”, “length human, mouse, rat and cynomolgus monkey serum” for “length HSA or mouse”, “albumin were” for “albumin was”

[16] = target: T1, human serum albumin (HSA), full length; assay: SPR kinetics, immobilized albumin, 1:1 fit, 37 C
Experimental: as §1, with “The SPR” for “Measurements were conducted by SPR and ELISA. SPR”, “length human, mouse, rat and cynomolgus monkey serum” for “length HSA or mouse”, “albumin were” for “albumin was”

[17] = target: T4, cynomolgus monkey serum albumin (cynoSA), full length (cynomolgus monkey, UniProt A2V9Z4 25-608); assay: SPR kinetics, immobilized albumin, 1:1 fit, 37 C
T4 construct: mature; Immobilized on CM5 chip (SPR); the cynoSA experiment used a different Biacore chip; also called CySA
Experimental: as §1, with “The SPR” for “Measurements were conducted by SPR and ELISA. SPR”, “length human, mouse, rat and cynomolgus monkey serum” for “length HSA or mouse”, “albumin were” for “albumin was”

[18] = target: T4, cynomolgus monkey serum albumin …; assay: SPR kinetics (Biacore, CM5): ligand '15ug/ml Cyno SA in Acetate 5.0' immobilised, Adnectin concentration series as analyte, 37 C, 1:1 binding fit; curve Fc=2-1 [panel Cyno SA]
Experimental: as §1, with “The SPR” for “Measurements were conducted by SPR and ELISA. SPR”, “length human, mouse, rat and cynomolgus monkey serum” for “length HSA or mouse”, “albumin were” for “albumin was”

[19] = target: T4, cynomolgus monkey serum albumin …; assay: SPR kinetics (Biacore, CM5): ligand '15ug/ml CynoSA in Acetate 5.0' immobilised, Adnectin concentration series as analyte, 37 C, 1:1 binding model; curve Fc=2-1 [panel Cyno SA]
Experimental: as §1, with “The SPR” for “Measurements were conducted by SPR and ELISA. SPR”, “length human, mouse, rat and cynomolgus monkey serum” for “length HSA or mouse”, “albumin were” for “albumin was”

T4 sequence (A2V9Z4 25-608): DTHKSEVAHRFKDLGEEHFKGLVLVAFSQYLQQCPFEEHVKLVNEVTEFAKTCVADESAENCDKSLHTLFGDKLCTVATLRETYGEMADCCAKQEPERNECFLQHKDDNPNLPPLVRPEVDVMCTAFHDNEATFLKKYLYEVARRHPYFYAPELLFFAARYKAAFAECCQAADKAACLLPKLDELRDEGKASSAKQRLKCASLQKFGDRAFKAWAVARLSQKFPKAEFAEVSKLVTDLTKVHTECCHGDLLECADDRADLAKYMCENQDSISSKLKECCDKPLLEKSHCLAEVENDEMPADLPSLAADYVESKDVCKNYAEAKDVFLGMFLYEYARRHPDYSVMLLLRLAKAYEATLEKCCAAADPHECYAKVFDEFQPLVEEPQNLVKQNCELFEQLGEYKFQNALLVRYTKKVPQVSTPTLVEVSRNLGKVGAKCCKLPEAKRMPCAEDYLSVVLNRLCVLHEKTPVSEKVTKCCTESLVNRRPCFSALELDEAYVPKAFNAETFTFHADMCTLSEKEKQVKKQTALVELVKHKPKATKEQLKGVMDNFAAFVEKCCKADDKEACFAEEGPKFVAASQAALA
T3 sequence (P02770 25-608): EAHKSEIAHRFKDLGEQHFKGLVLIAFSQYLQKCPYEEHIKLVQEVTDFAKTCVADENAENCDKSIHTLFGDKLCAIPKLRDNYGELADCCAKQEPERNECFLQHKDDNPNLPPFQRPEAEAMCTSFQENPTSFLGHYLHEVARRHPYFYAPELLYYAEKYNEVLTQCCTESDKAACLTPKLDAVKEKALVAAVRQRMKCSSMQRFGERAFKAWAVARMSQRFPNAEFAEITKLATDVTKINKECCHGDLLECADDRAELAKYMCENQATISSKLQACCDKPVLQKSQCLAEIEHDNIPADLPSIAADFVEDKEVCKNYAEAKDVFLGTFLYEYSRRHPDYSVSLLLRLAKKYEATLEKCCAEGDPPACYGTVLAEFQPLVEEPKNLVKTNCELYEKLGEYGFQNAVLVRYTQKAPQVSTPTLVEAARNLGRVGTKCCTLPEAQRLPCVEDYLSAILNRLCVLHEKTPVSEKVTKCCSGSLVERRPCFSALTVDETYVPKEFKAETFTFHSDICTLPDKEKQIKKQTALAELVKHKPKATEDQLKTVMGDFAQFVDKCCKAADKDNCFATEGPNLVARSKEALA
T1 sequence (P02768 25-609): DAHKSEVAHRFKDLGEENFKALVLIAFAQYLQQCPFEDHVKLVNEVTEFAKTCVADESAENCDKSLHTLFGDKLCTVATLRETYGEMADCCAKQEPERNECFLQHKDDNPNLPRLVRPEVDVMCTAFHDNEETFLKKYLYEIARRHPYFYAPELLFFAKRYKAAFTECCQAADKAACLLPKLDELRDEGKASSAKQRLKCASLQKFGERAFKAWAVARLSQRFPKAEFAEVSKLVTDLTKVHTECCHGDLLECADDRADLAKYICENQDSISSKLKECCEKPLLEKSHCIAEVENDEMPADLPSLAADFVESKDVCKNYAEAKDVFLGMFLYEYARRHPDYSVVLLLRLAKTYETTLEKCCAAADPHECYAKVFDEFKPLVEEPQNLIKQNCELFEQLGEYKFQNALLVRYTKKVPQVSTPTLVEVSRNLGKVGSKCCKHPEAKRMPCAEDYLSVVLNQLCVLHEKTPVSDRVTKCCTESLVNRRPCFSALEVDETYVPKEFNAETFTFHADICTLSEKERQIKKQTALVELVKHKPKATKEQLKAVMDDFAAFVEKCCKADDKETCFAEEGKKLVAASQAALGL

Binder | MSA DB ELISA YMIN OBS (OD450) [2] | koff [6] | koff [9] | MSA kd/Parent kd [10] | MSA Binding (RU) [11] | HSA kd/Parent kd [12] | HSA Binding (RU) [13] | also measured
ADX_6727_B09 (L38T/K85T) (designed binder, Full His6-tagged entry) MGVSDVPRDLEVVAATPTSLLISWDAPAVTVRYYRITYGREVQKYSDTGPLYIYQEFTVPGSKSTATISGLKPGVDYTITVYAVTGSGESPASSTPISINYRTEIDKPSQHHHHHH | 1 OD450 | 0.00921 s⁻¹ | 0.0262 s⁻¹ |  |  |  |  | koff [1]: 0.00921 s⁻¹; HSA DB ELISA (OD450) Ymax obs [3]: 16; HSA DB ELISA (OD450) Ymin obs [3]: 2; MSA kd/Parent kd [4]: 61.2; MSA DB ELISA (OD450) Ymax obs [5]: 27; MSA DB ELISA (OD450) Ymin obs [5]: 1; HSA kd/Parent kd [7]: 34; koff [8]: 0.0262 s⁻¹
ADX_6727_D03 (L41S) (designed binder, Full His6-tagged entry) MGVSDVPRDLEVVAATPTSLLISWDAPAVTVRYYRITYGREVQKYSDLGPSYIYQEFTVPGSKSTATISGLKPGVDYTITVYAVTGSGESPASSKPISINYRTEIDKPSQHHHHHH | 1 OD450 | 0.00777 s⁻¹ | 0.0134 s⁻¹ | 31.3 | 43 RU | 28.9 | 24 RU | 
ADX_6727_G10 (Y35S/K85A) (designed binder, Full His6-tagged entry) MGVSDVPRDLEVVAATPTSLLISWDAPAVTVRYYRITYGREVQKSSDLGPLYIYQEFTVPGSKSTATISGLKPGVDYTITVYAVTGSGESPASSAPISINYRTEIDKPSQHHHHHH |  | 0.000892 s⁻¹ | 0.00138 s⁻¹ | 3.2 | 63 RU | 3.3 | 27 RU | koff [1]: 0.000892 s⁻¹; HSA DB ELISA (OD450) Ymax obs [3]: 96; HSA DB ELISA (OD450) Ymin obs [3]: 54; MSA kd/Parent kd [4]: 3.2; MSA DB ELISA (OD450) Ymax obs [5]: 100; MSA DB ELISA (OD450) Ymin obs [5]: 54; HSA kd/Parent kd [7]: 3.3; koff [8]: 0.00138 s⁻¹
ADX_6727_H06 (Y44Q/K85T) (designed binder, Full His6-tagged entry) MGVSDVPRDLEVVAATPTSLLISWDAPAVTVRYYRITYGREVQKYSDLGPLYIQQEFTVPGSKSTATISGLKPGVDYTITVYAVTGSGESPASSTPISINYRTEIDKPSQHHHHHH | 1 OD450 | 0.0142 s⁻¹ | 0.0143 s⁻¹ | 33.5 | 43 RU | 52.7 | 24 RU | 
ADX_6727_H08 (L38T/K85T) (designed binder, Full His6-tagged entry; Printed with the same substitutions as ADX_6727_B09) MGVSDVPRDLEVVAATPTSLLISWDAPAVTVRYYRITYGREVQKYSDTGPLYIYQEFTVPGSKSTATISGLKPGVDYTITVYAVTGSGESPASSTPISINYRTEIDKPSQHHHHHH | 1 OD450 | 0.01 s⁻¹ | 0.0284 s⁻¹ |  |  |  |  | 
ADX_6727_H10 (L41S/K85S) (designed binder, Full His6-tagged entry) MGVSDVPRDLEVVAATPTSLLISWDAPAVTVRYYRITYGREVQKYSDLGPSYIYQEFTVPGSKSTATISGLKPGVDYTITVYAVTGSGESPASSSPISINYRTEIDKPSQHHHHHH | 1 OD450 | 0.0086 s⁻¹ | 0.0146 s⁻¹ | 34 | 35 RU | 32 | 19 RU | 
ADX_7016_C03 (Y44Q) (designed binder, Full His6-tagged entry; also called 6727_B03) MGVSDVPRDLEVVAATPTSLLISWDAPAVTVRYYRITYGREVQKYSDLGPLYIQQEFTVPGSKSTATISGLKPGVDYTITVYAVTGSGESPASSKPISINYRTEIDKPSQHHHHHH | 1 OD450 | 0.0214 s⁻¹ | 0.0179 s⁻¹ | 41.9 | 33 RU | 79.4 | 14 RU | Kd [14]: 1340 nM; koff [14]: 0.119 s⁻¹; kon [14]: 89100 M⁻¹ s⁻¹; Kd [15]: 265 nM; koff [15]: 0.0305 s⁻¹; kon [15]: 115000 M⁻¹ s⁻¹; Kd [16]: 889 nM; koff [16]: 0.0285 s⁻¹; kon [16]: 32100 M⁻¹ s⁻¹; Kd [17]: 1080 nM; koff [17]: 0.0444 s⁻¹; kon [17]: 41200 M⁻¹ s⁻¹; Kd [18]: 1080 nM; koff [18]: 0.0444 s⁻¹; kon [18]: 41200 M⁻¹ s⁻¹
ADX_7016_E02 (L38T) (designed binder, Full His6-tagged entry; also called 6727_E08) MGVSDVPRDLEVVAATPTSLLISWDAPAVTVRYYRITYGREVQKYSDTGPLYIYQEFTVPGSKSTATISGLKPGVDYTITVYAVTGSGESPASSKPISINYRTEIDKPSQHHHHHH | 1 OD450 | 0.00815 s⁻¹ | 0.0248 s⁻¹ | 57.8 | 30 RU | 30.3 | 25 RU | Kd [19]: 1430 nM; koff [19]: 0.171 s⁻¹; kon [19]: 119000 M⁻¹ s⁻¹; Kd [14]: 1130 nM; koff [14]: 0.0558 s⁻¹; kon [14]: 49400 M⁻¹ s⁻¹; Kd [15]: 502 nM; koff [15]: 0.0343 s⁻¹; kon [15]: 68400 M⁻¹ s⁻¹; Kd [16]: 666 nM; koff [16]: 0.0161 s⁻¹; kon [16]: 24200 M⁻¹ s⁻¹; Kd [17]: 1430 nM; koff [17]: 0.171 s⁻¹; kon [17]: 119000 M⁻¹ s⁻¹
